Percent reduction of binding with EGTA against Ca2+ and fold more bound with Ca2+ than with EGTA data for two molecules are collected here from paper PMC9019248.

The target of the experiment is calmodulin-Sepharose, P0DP23. The experiment in a line: pull-down. Particulars: remark: other sources report otherwise.

B1: purified recombinant human LATS1 (active kinase), O95835 1-1130 (enzyme)
chain: MKRSEKPEGYRQMRPKTFPASNYTVSSRQMLQEIRESLRNLSKPSDAAKAEHNMSKMSTEDPRQVRNPPKFGTHHKALQEIRNSLLPFANETNSSRSTSEVNPQMLQDLQAAGFDEDMVIQALQKTNNRSIEAAIEFISKMSYQDPRREQMAAAAARPINASMKPGNVQQSVNRKQSWKGSKESLVPQRHGPPLGESVAYHSESPNSQTDVGRPLSGSGISAFVQAHPSNGQRVNPPPPPQVRSVTPPPPPRGQTPPPRGTTPPPPSWEPNSQTKRYSGNMEYVISRISPVPPGAWQEGYPPPPLNTSPMNPPNQGQRGISSVPVGRQPIIMQSSSKFNFPSGRPGMQNGTGQTDFMIHQNVVPAGTVNRQPPPPYPLTAANGQSPSALQTGGSAAPSSYTNGSIPQSMMVPNRNSHNMELYNISVPGLQTNWPQSSSAPAQSSPSSGHEIPTWQPNIPVRSNSFNNPLGNRASHSANSQPSATTVTAITPAPIQQPVKSMRVLKPELQTALAPTHPSWIPQPIQTVQPSPFPEGTASNVTVMPPVAEAPNYQGPPPPYPKHLLHQNPSVPPYESISKPSKEDQPSLPKEDESEKSYENVDSGDKEKKQITTSPITVRKNKKDEERRESRIQSYSPQAFKFFMEQHVENVLKSHQQRLHRKKQLENEMMRVGLSQDAQDQMRKMLCQKESNYIRLKRAKMDKSMFVKIKTLGIGAFGEVCLARKVDTKALYATKTLRKKDVLLRNQVAHVKAERDILAEADNEWVVRLYYSFQDKDNLYFVMDYIPGGDMMSLLIRMGIFPESLARFYIAELTCAVESVHKMGFIHRDIKPDNILIDRDGHIKLTDFGLCTGFRWTHDSKYYQSGDHPRQDSMDFSNEWGDPSSCRCGDRLKPLERRAARQHQRCLAHSLVGTPNYIAPEVLLRTGYTQLCDWWSVGVILFEMLVGQPPFLAQTPLETQMKVINWQTSLHIPPQAKLSPEASDLIIKLCRGPEDRLGKNGADEIKAHPFFKTIDFSSDLRQQSASYIPKITHPTDTSNFDPVDPDKLWSDDNEEENVNDTLNGWYKNGKHPEHAFYEFTFRRFFDDNGYPYNYPKPIEYEYINSQGSEQQSDEDDQNTGSEIKNRDLVYV
In the case of B1, the percent reduction of binding with EGTA against Ca2+ worked out at 70.9%.

B2: large tumor suppressor 1 kinase (endogenous, HEK293 cells), O95835 1-1130 (enzyme)
chain: B1 chain
B2 had a fold more bound with Ca2+ than with EGTA of 11 fold.
